# Patent US11319341B2, “Immune-stimulating soluble doxorubicin-conjugated complex” (Yafei (Shanghai) Biopharmaceutical Co., Ltd., priority 2016, dated 2022)
# Residues, ends and D or L forms follow the SMILES beside them. *: point of attachment. Doxorubicin(3'-N) = COc1cccc2c1C(=O)c1c(O)c3c(c(O)c1C2=O)C[C@@](O)(C(=O)CO)C[C@@H]3O[C@H]1C[C@H](N*)[C@H](O)[C@H](C)O1; MaleimidoPEG4propanoyl = O=C1C=CC(=O)N1CCOCCOCCOCCOCCC(=O)*; Hexanoyl(6-maleimido) = O=C1C=CC(=O)N1CCCCCC(=O)*; Butanoyl(4-maleimido) = O=C1C=CC(=O)N1CCCC(=O)*; Propanoyl(3-maleimido) = O=C1C=CC(=O)N1CCC(=O)*; X1 = O=C1C=CC(=O)N1CCOCCOCCOCCC(=O)*; PEG6 = NCCOCCOCCOCCOCCOCCOCCC(=O)O; PEG4 = NCCOCCOCCOCCOCCC(=O)O; PEG3 = NCCOCCOCCOCCC(=O)O; PEG2 = NCCOCCOCCC(=O)O
# Assay: Water solubility of freeze-dried compounds in water (observation and HPLC)
# Settings: not given
row,Compound,solubility [mg/mL]
1,COc1cccc2c1C(=O)c1c(O)c3c(c(O)c1C2=O)C[C@@](O)(C(=O)CO)C[C@@H]3O[C@H]1C[C@H](NC(=O)[C@H](CC(C)C)NC(=O)[C@H](CC(N)=O)NC(=O)[C@H](C)NC(=O)[C@H](C)NC(=O)[C@H](CCC(=O)O)NC(=O)CCOCCOCCOCCOCCOCCOCCNC(=O)CCCN2C(=O)C=CC2=O)[C@H](O)[C@H](C)O1 [QHL-081] ({Butanoyl(4-maleimido)-PEG6}-EAANL-{Doxorubicin(3'-N)}),> 30
2,COc1cccc2c1C(=O)c1c(O)c3c(c(O)c1C2=O)C[C@@](O)(C(=O)CO)C[C@@H]3O[C@H]1C[C@H](NC(=O)[C@H](CC(C)C)NC(=O)[C@H](CC(N)=O)NC(=O)[C@H](C)NC(=O)[C@H](C)NC(=O)[C@H](Cc2ccc(O)cc2)NC(=O)CCCCCN2C(=O)C=CC2=O)[C@H](O)[C@H](C)O1 [QHL-132] ({Hexanoyl(6-maleimido)}-YAANL-{Doxorubicin(3'-N)}),> 2
3,COc1cccc2c1C(=O)c1c(O)c3c(c(O)c1C2=O)C[C@@](O)(C(=O)CO)C[C@@H]3O[C@H]1C[C@H](NC(=O)[C@H](CC(C)C)NC(=O)[C@H](CC(N)=O)NC(=O)[C@H](C)NC(=O)[C@H](C)NC(=O)CCOCCOCCOCCNC(=O)CCCN2C(=O)C=CC2=O)[C@H](O)[C@H](C)O1 [QHL-102] ({Butanoyl(4-maleimido)-PEG3}-AANL-{Doxorubicin(3'-N)}),> 10
4,COc1cccc2c1C(=O)c1c(O)c3c(c(O)c1C2=O)C[C@@](O)(C(=O)CO)C[C@@H]3O[C@H]1C[C@H](NC(=O)[C@H](CC(C)C)NC(=O)[C@H](CC(N)=O)NC(=O)[C@H](C)NC(=O)[C@H](C)NC(=O)CCOCCOCCOCCOCCOCCOCCNC(=O)CCCN2C(=O)C=CC2=O)[C@H](O)[C@H](C)O1 [QHL-108] ({Butanoyl(4-maleimido)-PEG6}-AANL-{Doxorubicin(3'-N)}),> 20
5,COc1cccc2c1C(=O)c1c(O)c3c(c(O)c1C2=O)C[C@@](O)(C(=O)CO)C[C@@H]3O[C@H]1C[C@H](NC(=O)[C@H](CC(C)C)NC(=O)[C@H](CC(N)=O)NC(=O)[C@H](C)NC(=O)[C@H](C)NC(=O)[C@H](CCC(=O)O)NC(=O)CCOCCOCCOCCOCCN2C(=O)C=CC2=O)[C@H](O)[C@H](C)O1 [QHL-023] (MaleimidoPEG4propanoyl-EAANL-{Doxorubicin(3'-N)}),> 25
6,COc1cccc2c1C(=O)c1c(O)c3c(c(O)c1C2=O)C[C@@](O)(C(=O)CO)C[C@@H]3O[C@H]1C[C@H](NC(=O)[C@H](CC(C)C)NC(=O)[C@H](CC(N)=O)NC(=O)[C@H](C)NC(=O)[C@H](C)NC(=O)[C@H](CCC(=O)O)NC(=O)CCOCCOCCOCCNC(=O)CCN2C(=O)C=CC2=O)[C@H](O)[C@H](C)O1 [QHL-045] ({Propanoyl(3-maleimido)-PEG3}-EAANL-{Doxorubicin(3'-N)}),> 20
7,COc1cccc2c1C(=O)c1c(O)c3c(c(O)c1C2=O)C[C@@](O)(C(=O)CO)C[C@@H]3O[C@H]1C[C@H](NC(=O)[C@H](CC(C)C)NC(=O)[C@H](CC(N)=O)NC(=O)[C@H](C)NC(=O)[C@H](C)NC(=O)[C@@H](NC(=O)CCCCCN2C(=O)C=CC2=O)[C@@H](C)O)[C@H](O)[C@H](C)O1 [QHL-130] ({Hexanoyl(6-maleimido)}-TAANL-{Doxorubicin(3'-N)}),> 2
8,COc1cccc2c1C(=O)c1c(O)c3c(c(O)c1C2=O)C[C@@](O)(C(=O)CO)C[C@@H]3O[C@H]1C[C@H](NC(=O)[C@H](CC(C)C)NC(=O)[C@H](CC(N)=O)NC(=O)[C@H](C)NC(=O)[C@H](C)NC(=O)[C@H](CCCNC(=N)N)NC(=O)CCCCCN2C(=O)C=CC2=O)[C@H](O)[C@H](C)O1 [QHL-136] ({Hexanoyl(6-maleimido)}-RAANL-{Doxorubicin(3'-N)}),> 2
9,COc1cccc2c1C(=O)c1c(O)c3c(c(O)c1C2=O)C[C@@](O)(C(=O)CO)C[C@@H]3O[C@H]1C[C@H](NC(=O)[C@H](CC(C)C)NC(=O)[C@H](CC(N)=O)NC(=O)[C@H](C)NC(=O)[C@H](C)NC(=O)[C@H](CC(=O)O)NC(=O)CCOCCOCCOCCOCCNC(=O)CCCN2C(=O)C=CC2=O)[C@H](O)[C@H](C)O1 [QHL-078] ({Butanoyl(4-maleimido)-PEG4}-DAANL-{Doxorubicin(3'-N)}),> 25
10,COc1cccc2c1C(=O)c1c(O)c3c(c(O)c1C2=O)C[C@@](O)(C(=O)CO)C[C@@H]3O[C@H]1C[C@H](NC(=O)[C@H](CC(C)C)NC(=O)[C@H](CC(N)=O)NC(=O)[C@H](C)NC(=O)[C@H](C)NC(=O)[C@H](CCC(=O)O)NC(=O)CCOCCOCCOCCOCCNC(=O)CCN2C(=O)C=CC2=O)[C@H](O)[C@H](C)O1 [QHL-051] ({Propanoyl(3-maleimido)-PEG4}-EAANL-{Doxorubicin(3'-N)}),> 25
11,COc1cccc2c1C(=O)c1c(O)c3c(c(O)c1C2=O)C[C@@](O)(C(=O)CO)C[C@@H]3O[C@H]1C[C@H](NC(=O)[C@H](CC(C)C)NC(=O)[C@H](CC(N)=O)NC(=O)[C@H](C)NC(=O)[C@H](C)NC(=O)[C@H](CO)NC(=O)CCCCCN2C(=O)C=CC2=O)[C@H](O)[C@H](C)O1 [QHL-129] ({Hexanoyl(6-maleimido)}-SAANL-{Doxorubicin(3'-N)}),> 5
12,COc1cccc2c1C(=O)c1c(O)c3c(c(O)c1C2=O)C[C@@](O)(C(=O)CO)C[C@@H]3O[C@H]1C[C@H](NC(=O)[C@H](CC(C)C)NC(=O)[C@H](CC(N)=O)NC(=O)[C@H](C)NC(=O)[C@H](C)NC(=O)[C@H](CC(C)C)NC(=O)CCCCCN2C(=O)C=CC2=O)[C@H](O)[C@H](C)O1 [QHL-124] ({Hexanoyl(6-maleimido)}-LAANL-{Doxorubicin(3'-N)}),> 5
13,COc1cccc2c1C(=O)c1c(O)c3c(c(O)c1C2=O)C[C@@](O)(C(=O)CO)C[C@@H]3O[C@H]1C[C@H](NC(=O)[C@H](CC(C)C)NC(=O)[C@H](CC(N)=O)NC(=O)[C@H](C)NC(=O)[C@H](C)NC(=O)[C@H](CC(=O)O)NC(=O)CCOCCOCCOCCNC(=O)CCCN2C(=O)C=CC2=O)[C@H](O)[C@H](C)O1 [QHL-072] ({Butanoyl(4-maleimido)-PEG3}-DAANL-{Doxorubicin(3'-N)}),> 25
14,COc1cccc2c1C(=O)c1c(O)c3c(c(O)c1C2=O)C[C@@](O)(C(=O)CO)C[C@@H]3O[C@H]1C[C@H](NC(=O)[C@H](CC(C)C)NC(=O)[C@H](CC(N)=O)NC(=O)[C@H](C)NC(=O)[C@H](C)NC(=O)[C@H](CCC(=O)O)NC(=O)CCOCCOCCOCCOCCNC(=O)CCCN2C(=O)C=CC2=O)[C@H](O)[C@H](C)O1 [QHL-075] ({Butanoyl(4-maleimido)-PEG4}-EAANL-{Doxorubicin(3'-N)}),> 25
15,COc1cccc2c1C(=O)c1c(O)c3c(c(O)c1C2=O)C[C@@](O)(C(=O)CO)C[C@@H]3O[C@H]1C[C@H](NC(=O)[C@H](CC(C)C)NC(=O)[C@H](CC(N)=O)NC(=O)[C@H](C)NC(=O)[C@H](C)NC(=O)[C@H](CC(=O)O)NC(=O)CCOCCOCCOCCNC(=O)CCN2C(=O)C=CC2=O)[C@H](O)[C@H](C)O1 [QHL-048] ({Propanoyl(3-maleimido)-PEG3}-DAANL-{Doxorubicin(3'-N)}),> 20
16,COc1cccc2c1C(=O)c1c(O)c3c(c(O)c1C2=O)C[C@@](O)(C(=O)CO)C[C@@H]3O[C@H]1C[C@H](NC(=O)[C@H](CC(C)C)NC(=O)[C@H](CC(N)=O)NC(=O)[C@H](C)NC(=O)[C@H](C)NC(=O)[C@H](CCC(=O)O)NC(=O)CCN2C(=O)C=CC2=O)[C@H](O)[C@H](C)O1 [QHL-111] ({Propanoyl(3-maleimido)}-EAANL-{Doxorubicin(3'-N)}),> 10
17,COc1cccc2c1C(=O)c1c(O)c3c(c(O)c1C2=O)C[C@@](O)(C(=O)CO)C[C@@H]3O[C@H]1C[C@H](NC(=O)[C@H](CC(C)C)NC(=O)[C@H](CC(N)=O)NC(=O)[C@H](C)NC(=O)[C@H](C)NC(=O)[C@H](CC(=O)O)NC(=O)CCOCCOCCNC(=O)CCCN2C(=O)C=CC2=O)[C@H](O)[C@H](C)O1 [QHL-066] ({Butanoyl(4-maleimido)-PEG2}-DAANL-{Doxorubicin(3'-N)}),> 15
18,COc1cccc2c1C(=O)c1c(O)c3c(c(O)c1C2=O)C[C@@](O)(C(=O)CO)C[C@@H]3O[C@H]1C[C@H](NC(=O)[C@H](CC(C)C)NC(=O)[C@H](CC(N)=O)NC(=O)[C@H](C)NC(=O)[C@H](C)NC(=O)[C@H](CC(=O)O)NC(=O)CCOCCOCCOCCOCCOCCOCCNC(=O)CCN2C(=O)C=CC2=O)[C@H](O)[C@H](C)O1 [QHL-060] ({Propanoyl(3-maleimido)-PEG6}-DAANL-{Doxorubicin(3'-N)}),> 25
19,COc1cccc2c1C(=O)c1c(O)c3c(c(O)c1C2=O)C[C@@](O)(C(=O)CO)C[C@@H]3O[C@H]1C[C@H](NC(=O)[C@H](CC(C)C)NC(=O)[C@H](CC(N)=O)NC(=O)[C@H](C)NC(=O)[C@H](C)NC(=O)[C@H](CC(=O)O)NC(=O)CCOCCOCCOCCOCCN2C(=O)C=CC2=O)[C@H](O)[C@H](C)O1 [QHL-035] (MaleimidoPEG4propanoyl-DAANL-{Doxorubicin(3'-N)}),> 25
20,COc1cccc2c1C(=O)c1c(O)c3c(c(O)c1C2=O)C[C@@](O)(C(=O)CO)C[C@@H]3O[C@H]1C[C@H](NC(=O)[C@H](CC(C)C)NC(=O)[C@H](CC(N)=O)NC(=O)[C@H](C)NC(=O)[C@H](C)NC(=O)[C@H](CCSC)NC(=O)CCCCCN2C(=O)C=CC2=O)[C@H](O)[C@H](C)O1 [QHL-126] ({Hexanoyl(6-maleimido)}-MAANL-{Doxorubicin(3'-N)}),> 2
21,CC[C@H](C)[C@H](NC(=O)CCCCCN1C(=O)C=CC1=O)C(=O)N[C@@H](C)C(=O)N[C@@H](C)C(=O)N[C@@H](CC(N)=O)C(=O)N[C@@H](CC(C)C)C(=O)N[C@H]1C[C@H](O[C@H]2C[C@](O)(C(=O)CO)Cc3c(O)c4c(c(O)c32)C(=O)c2c(OC)cccc2C4=O)O[C@@H](C)[C@H]1O [QHL-125] ({Hexanoyl(6-maleimido)}-IAANL-{Doxorubicin(3'-N)}),> 2
22,COc1cccc2c1C(=O)c1c(O)c3c(c(O)c1C2=O)C[C@@](O)(C(=O)CO)C[C@@H]3O[C@H]1C[C@H](NC(=O)[C@H](CC(C)C)NC(=O)[C@H](CC(N)=O)NC(=O)[C@H](C)NC(=O)[C@H](C)NC(=O)[C@H](CCC(=O)O)NC(=O)CCOCCOCCOCCN2C(=O)C=CC2=O)[C@H](O)[C@H](C)O1 [QHL-022] (X1-EAANL-{Doxorubicin(3'-N)}),> 20

# Same assay, conditions: freeze-dried compound dissolved in water; observation and HPLC test (>95%)
row,Compound,solubility [mg/mL]
1,COc1cccc2c1C(=O)c1c(O)c3c(c(O)c1C2=O)C[C@@](O)(C(=O)CO)C[C@@H]3O[C@H]1C[C@H](N)[C@H](O)[C@H](C)O1 [C1: DOX],<1
